Measurements as given in publication doi:10.1101/720318 (bioRxiv, 2019).

B1: D1min L297A (peptide)
peptide: APQWMLPALLGLY
B2: D1min W293A (peptide)
peptide: APQAMLPLLLGLY
modifications: N-terminal acetyl, C-terminal amide (Ac-APQAMLPLLLGLY-NH2, printed for the NMR samples)
B3: D1min L298A (peptide)
peptide: APQWMLPLALGLY

These binders were tested against BKV serotype 1 VP1 (30-297) pentamer (BK polyomavirus) (assay: AlphaScreen or HTRF).
B1: binds.
B2: binds.
B3: binds.
